From US20040109854A1

Molecular target: TRAF6 dm (amino acids 1-274) fused to the GAL4 DNA binding domain (pGBT9-TRAF6 dm) (yeast; human) (UniProt P04386)
Test: cell-based or functional assay

recombinant TRAF6-inhibiting protein fused with the transcription activation domain of GAL4 (full length cDNA in pGAD424, expressed in yeast Y190) (from UniProt Q8TD23 1-568)
β-galactosidase activity titer (liquid β-galactosidase assay, yeast two-hybrid): 21 unit
